Assay results taken from US20100233189A1.

Molecular target: human TSHR with mutation K209E expressed in CHO cells (human) (UniProt P16473)
Experiment: cell-based or functional assay

UniProt P16473, sequence (P16473 22-764 K209E/E727D): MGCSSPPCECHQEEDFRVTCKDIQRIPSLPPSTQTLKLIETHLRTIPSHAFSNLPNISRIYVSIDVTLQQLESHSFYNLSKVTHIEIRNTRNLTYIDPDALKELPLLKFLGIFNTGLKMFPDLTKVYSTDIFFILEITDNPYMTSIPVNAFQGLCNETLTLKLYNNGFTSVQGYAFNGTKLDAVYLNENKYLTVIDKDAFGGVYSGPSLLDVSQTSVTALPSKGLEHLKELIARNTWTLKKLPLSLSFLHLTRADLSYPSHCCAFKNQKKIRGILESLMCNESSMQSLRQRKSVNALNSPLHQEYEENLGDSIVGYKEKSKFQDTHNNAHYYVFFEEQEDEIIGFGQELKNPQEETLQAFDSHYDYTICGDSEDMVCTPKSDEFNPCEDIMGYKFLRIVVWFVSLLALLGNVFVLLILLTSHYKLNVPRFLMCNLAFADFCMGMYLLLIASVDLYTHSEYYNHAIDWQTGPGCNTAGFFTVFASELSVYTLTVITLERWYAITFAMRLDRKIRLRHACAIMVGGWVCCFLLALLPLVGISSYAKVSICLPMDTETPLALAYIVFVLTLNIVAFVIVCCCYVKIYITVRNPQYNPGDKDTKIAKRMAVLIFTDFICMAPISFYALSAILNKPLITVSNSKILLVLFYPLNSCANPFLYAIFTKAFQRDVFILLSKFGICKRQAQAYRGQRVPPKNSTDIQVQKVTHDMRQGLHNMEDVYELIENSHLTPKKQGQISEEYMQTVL

M22 stimulating activity (cyclic AMP production in TSHR expressing CHO cells) (% of activity with the wild type TSHR): < 20
B1: M22 Fab (Fab fragment of human monoclonal thyroid stimulating autoantibody hMAb TSHR1) (Fab, from another filing, V domains shown)
VH: QVQLVQSGAEVKKPGESLKISCRGSGYRFTSYWINWVRQLPGKGLEWMGRIDPTDSYTNYSPSFKGHVTVSADKSINTAYLQWSSLKASDTGMYYCARLEPGYSSTWSVNWGQGTLVTVSS
VL: LTVLTQPPSVSGAPRQRVTISCSGNSSNIGNNAVNWYQQLPGKAPKLLIYYDDQLPSGVSDRFSGSRSGTSASLAIRGLQSEDEADYYCTSWDDSLDSQLFGGGTRLTVLG
